T1: Human OX40 expressed on the cell surface (activated human CD4+ OX40+ T cells) (human, UniProt P43489 29-277)
T1 construct: whole, on cells; Also used as the target for the functional assays on human PBMC; also called cell-surface expressed OX40
T1 sequence (looked up): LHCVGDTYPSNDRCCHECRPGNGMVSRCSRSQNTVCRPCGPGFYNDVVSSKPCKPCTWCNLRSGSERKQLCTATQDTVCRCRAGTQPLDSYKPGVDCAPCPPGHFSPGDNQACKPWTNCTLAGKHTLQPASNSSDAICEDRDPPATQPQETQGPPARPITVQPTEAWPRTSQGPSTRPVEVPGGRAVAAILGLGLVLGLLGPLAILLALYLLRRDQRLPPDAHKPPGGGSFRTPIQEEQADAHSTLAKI

T2: Human OX40 (soluble analyte in BIAcore) (human, UniProt P43489 29-214, limits assumed)
T2 construct: also called hOX40
T2 sequence (looked up): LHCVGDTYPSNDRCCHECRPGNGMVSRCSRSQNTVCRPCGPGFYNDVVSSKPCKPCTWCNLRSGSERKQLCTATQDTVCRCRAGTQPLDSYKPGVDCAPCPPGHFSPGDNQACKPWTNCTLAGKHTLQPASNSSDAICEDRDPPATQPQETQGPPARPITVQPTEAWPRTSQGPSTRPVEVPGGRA


Experiments:
[1] = molecular target: T1, Human OX40 expressed on the cell …; experiment: flow cytometry saturation binding on activated human CD4+ OX40+ T cells, with 5% HSA
Protocol: (§1) Specific binding of antibody to receptor at equilibrium across a range of antibody concentrations was used to determine KD, assuming that only a very small fraction of antibody was bound to receptor at any point on the binding curve.
(§2) PBMC were isolated by separation on a Ficoll gradient and activated with 4 μg/mL PHA-L for 3 days at 37° C., 5% CO₂, 100% humidity. Following this, CD4⁺ T cells were isolated by negative selection using magnetic beads (CD4⁺ T cell Isolation Kit II for Human; Miltenyi Biotec). Approximately 1×10⁵ cells were incubated in the presence of antibody in either Facs buffer (PBS/0.2% BSA/0.09% NaN3) or Facs buffer supplemented with 5% HSA, at 4° C. The final concentration of the antibody ranged from 48 nM-0.0005 nM. The cells were washed in PBS prior to analysis by flow cytometry using a FACScalibur (Becton Dickinson). […] The number of moles of bound antibody was calculated by using interpolated values from a standard curve generated from beads comprised of differing but known amounts of fluorescent dye. Geometric mean fluorescence values were determined in the flow cytometric analyses of cells and beads. Non-specific binding was subtracted from the A26 Fab-Fv values and the specific binding curve thus generated analysed by non-linear regression using a one-site binding equation (Graphpad Prism®) to determine the KD.

[2] = molecular target: T1, Human OX40 expressed on the cell …; experiment: flow cytometry saturation binding on activated human CD4+ OX40+ T cells, no HSA
Protocol: as §1, §2

[3] = molecular target: T2, Human OX40 (soluble analyte in BIAcore); experiment: SPR (BIAcore T200), antibody captured by anti-human F(ab′)2, human OX40 as analyte; average of 4
Protocol: (§3) BIA (Biamolecular Interaction Analysis) was performed using a BIAcore T200 (GE Healthcare). Affinipure F(ab′)₂ Fragment goat anti-human IgG, F(ab′)₂ fragment specific (Jackson ImmunoResearch) was immobilised on a CM5 Sensor Chip via amine coupling chemistry to a capture level of ≈5000 response units (RUs). HBS-EP buffer (10 mM HEPES pH 7.4, 0.15 M NaCl, 3 mM EDTA, 0.05% Surfactant P20, GE Healthcare) was used as the running buffer with a flow rate of 10 μL/min. A 10 μL injection of A26 Fab′ at 0.5 μg/mL or A26Fab-dsFv at 1 μg/mL was used for capture by the immobilised anti-human IgG-F(ab′)₂. Human OX40 was titrated over the captured A26 at various concentrations (25 nM to 1.5625 nM) at a flow rate of 30 μL/min. The surface was regenerated by 2×10 μL injection of 50 mM HCl, followed by a 5 μL injection of 5 mM NaOH at a flowrate of 10 μL/min. Background subtraction binding curves were analysed using the T200evaluation software (version 1.0) following standard procedures. Kinetic parameters were determined from the fitting algorithm.

[4] = molecular target: T1, Human OX40 expressed on the cell …; experiment: cell-based or functional assay
[5] = molecular target: T1, Human OX40 expressed on the cell …; experiment: flow cytometry binding on activated human CD4+ OX40+ T cells in 5% HSA, % maximal binding, mean of 4 or 5 donors
Protocol: Binding of AlexaFluor488-labelled A26 Fab-Fv to activated human CD4⁺0 X40⁺ T cells was measured by flow cytometry across a 5-log concentration range.
PBMC were isolated by separation on a Ficoll gradient and activated with 4 μg/mL PHA-L for 3 days at 37° C., 5% CO₂, 100% humidity. Following this, CD4⁺ T cells were isolated by negative selection using magnetic beads (CD4⁺ T cell Isolation Kit II for Human; Miltenyi Biotec). Approximately 1×10⁵ cells were incubated in the presence of antibody in either Facs buffer (PBS/0.2% BSA/0.09% NaN3) or Facs buffer supplemented with 5% HSA, at 4° C. The final concentration of the antibody ranged from 48 nM-0.0005 nM. The cells were washed in PBS prior to analysis by flow cytometry using a FACScalibur (Becton Dickinson). Titration data sets were also produced for isotype control antibodies for each A26 format to determine non specific binding. The number of moles of bound antibody was calculated by using interpolated values from a standard curve generated from beads comprised of differing but known amounts of fluorescent dye. Geometric mean fluorescence values were determined in the flow cytometric analyses of cells and beads. Non-specific binding was subtracted from the A26 Fab-Fv values and the specific binding curve thus generated analysed by non-linear regression using a one-site binding equation (Graphpad Prism®) to determine the KD.

[6] = molecular target: T1, Human OX40 expressed on the cell …; experiment: flow cytometry competition on activated human CD4+OX40+ T cells; competitor OX40L (biotinylated CD252 muCD8) at 2 µg/mL
Protocol: (§4) The capacity of A26 Fab-dsFv to block the interaction between cell-surface expressed OX40 and recombinant OX40L was measured using a flow cytometry-based ligand blocking assay. Briefly, activated human CD4⁺OX40⁺ T cells were pre-incubated with a titration of A26 Fab-Fv. Recombinant OX40L was subsequently added to the cells and allowed to bind in the presence of A26 Fab-dsFv. The proportion of OX40L bound was then detected by flow cytometry using a labelled secondary reagent.
(§5) PBMC were isolated by separation on a Ficoll gradient and activated with 4 μg/mL PHA-L (Sigma) for 3 days at 37° C., 5% CO₂, 100% humidity. CD4⁺ T cells were then purified from the culture by negative selection using MACS columns (Miltenyi Biotech, CD4⁺ T cell isolation kit II). 2×10⁵ CD4⁺ T cells were incubated in the presence of A26 Fab-dsFv (final concentration range 10 μg/mL-0.000056 μg/mL (136.6 nM-0.000765 nM)) for 30 minutes at 4° C. OX40L (biotinylated CD252 muCD8, Ancell) was added at a final concentration of 2 μg/mL and incubated for a further 30 minutes at 4° C. Cells were washed and OX40L binding detected by incubation with PE-labelled streptavadin (Jackson Immunoresearch) prior to analysis by flow cytometry using a FACS Canto (Becton Dickinson). A matched non-OX40 binding Fab-dsFv was used as a control. The inhibition curve was analysed by non-linear regression (Graphpad Prism®) to determine the IC₅₀. […]

[7] = molecular target: T1, Human OX40 expressed on the cell …; experiment: flow cytometry ligand-blocking assay on activated human CD4+ OX40+ T cells; blocked ligand: recombinant OX40L (biotinylated CD252 muCD8)
Protocol: as §4, §5

[8] = molecular target: T1, Human OX40 expressed on the cell …; experiment: cell-based or functional assay; remark: listed apart in the source
Human Serum Albumin = molecular target: T3, Human Serum Albumin (human, UniProt P02768 25-609); experiment: SPR (BIAcore T200), Fab-Fv captured by anti-human F(ab′)2, albumin as analyte; average of 3
T3 construct: also called HSA; HAS [sic]
Protocol: as §3, with “Fab-Fv” for “A26 Fab′”, “0.75” for “0.5 μg/mL or A26Fab-dsFv at 1”, “Serum Albumin (HSA), Mouse Serum albumin (MSA) and Cynomolgus Serum Albumin (CSA)” for “OX40”, “Fab-Fv” for “A26”, “(50” for “(25”, “6.25” for “1.5625”

Mouse Serum albumin = molecular target: T4, Mouse Serum albumin (mouse, UniProt P07724 25-608); experiment: as above
T4 construct: also called MSA
Protocol: as §3, with “Fab-Fv” for “A26 Fab′”, “0.75” for “0.5 μg/mL or A26Fab-dsFv at 1”, “Serum Albumin (HSA), Mouse Serum albumin (MSA) and Cynomolgus Serum Albumin (CSA)” for “OX40”, “Fab-Fv” for “A26”, “(50” for “(25”, “6.25” for “1.5625”

Cynomolgus Serum Albumin = molecular target: T5, Cynomolgus Serum Albumin (cynomolgus, UniProt A2V9Z4 25-608); experiment: as above
T5 construct: also called CSA
Protocol: as §3, with “Fab-Fv” for “A26 Fab′”, “0.75” for “0.5 μg/mL or A26Fab-dsFv at 1”, “Serum Albumin (HSA), Mouse Serum albumin (MSA) and Cynomolgus Serum Albumin (CSA)” for “OX40”, “Fab-Fv” for “A26”, “(50” for “(25”, “6.25” for “1.5625”

Row | Kd [1] [pM] | Kd [2] [pM] | Kd [3] [pM] | koff [3] [s⁻¹] | kon [3] [M⁻¹ s⁻¹] | EC50 for inhibition of human MLR proliferative response [4] [pM] | EC50 (read off the curve) [5] [pM] | EC50 [6] [pM] | IC50 (read off the curve) [7] [pM] | Inhibition of IL-5 Production EC50 (human HDM in vitro assay) [8] [pM] | Inhibition of IL-13 Production EC50 (human HDM in vitro assay) [8] [pM] | Kd (Human Serum Albumin) [pM] | koff (Human Serum Albumin) [s⁻¹] | kon (Human Serum Albumin) [M⁻¹ s⁻¹] | Kd (Mouse Serum albumin) [pM] | koff (Mouse Serum albumin) [s⁻¹] | kon (Mouse Serum albumin) [M⁻¹ s⁻¹] | Kd (Cynomolgus Serum Albumin) [pM] | koff (Cynomolgus Serum Albumin) [s⁻¹] | kon (Cynomolgus Serum Albumin) [M⁻¹ s⁻¹] | Binder
1 | 230 | 322 | 48.4 | 1.12e-05 | 233000 | 880 | ~200 | 739 | ~700 | 1310 | 928 | – | – | – | – | – | – | – | – | – | A26 Fab′-PEG (A26 Fab-40K PEG′ described in WO2010/096418) (Fab, V domains shown, 40K PEG; site of attachment not given) VH: EVQLVESGGGLVQPGGSLRLSCAASGFTFTNYGIHWIRQAPGKGLEWVASISPSGGLTYYRDSVKGRFTISRDDAKNSPYLQMNSLRAEDTAVYYCATGGEGIFDYWGQGTLVTVSS VL: DIQMTQSPSSLSASVGDRVTITCRATQSIYNALAWYQQKPGKAPKLLIYNANTLHTGVPSRFSASGSGTDSTLTISSLQPEDFATYYCQQYYDYPLTFGGGTKVEIKR
2 | 68 | 85 | ≤ 46.8 | ≤ 1e-05 | 218000 | 250 | ~90 | 242 | ~300 | 680 | 335 | – | – | – | – | – | – | – | – | – | A26 Fab′ (Fab, V domains shown) VH: EVQLVESGGGLVQPGGSLRLSCAASGFTFTNYGIHWIRQAPGKGLEWVASISPSGGLTYYRDSVKGRFTISRDDAKNSPYLQMNSLRAEDTAVYYCATGGEGIFDYWGQGTLVTVSS VL: DIQMTQSPSSLSASVGDRVTITCRATQSIYNALAWYQQKPGKAPKLLIYNANTLHTGVPSRFSASGSGTDSTLTISSLQPEDFATYYCQQYYDYPLTFGGGTKVEIKR
3 | – | – | – | – | – | – | – | – | – | – | – | 2930 | 0.000163 | 58400 | 4160 | 0.000368 | 88600 | 2660 | 0.000189 | 71000 | A26 Fab-dsFv (645gH5gL4) (bispecific antibody, also called A26 Fab-Fv; Fab-Fv) heavy: EVQLVESGGGLVQPGGSLRLSCAASGFTFTNYGIHWIRQAPGKGLEWVASISPSGGLTYYRDSVKGRFTISRDDAKNSPYLQMNSLRAEDTAVYYCATGGEGIFDYWGQGTLVTVSSASTKGPSVFPLAPSSKSTSGGTAALGCLVKDYFPEPVTVSWNSGALTSGVHTFPAVLQSSGLYSLSSVVTVPSSSLGTQTYICNVNHKPSNTKVDKKVEPKSCSGGGGSGGGGTGGGGSEVQLLESGGGLVQPGGSLRLSCAVSGIDLSNYAINWVRQAPGKCLEWIGIIWASGTTFYATWAKGRFTISRDNSKNTVYLQMNSLRAEDTAVYYCARTVPGYSTAPYFDLWGQGTLVTVSS light: DIQMTQSPSSLSASVGDRVTITCRATQSIYNALAWYQQKPGKAPKLLIYNANTLHTGVPSRFSASGSGTDSTLTISSLQPEDFATYYCQQYYDYPLTFGGGTKVEIKRTVAAPSVFIFPPSDEQLKSGTASVVCLLNNFYPREAKVQWKVDNALQSGNSQESVTEQDSKDSTYSLSSTLTLSKADYEKHKVYACEVTHQGLSSPVTKSFNRGECGGGGSGGGGSGGGGSDIQMTQSPSSVSASVGDRVTITCQSSPSVWSNFLSWYQQKPGKAPKLLIYEASKLTSGVPSRFSGSGSGTDFTLTISSLQPEDFATYYCGGGYSSISDTTFGCGTKVEIKRT

From US20160031974A1 (UCB, published 2016)
